Results published in FireProtDB (doi:10.1021/bi952198j).
Several values for one entry are separate records, joined by “and”; a condition that tells them apart may be missing. Identical values can stand only once.

Conditions: Aspergillus oryzae (strain ATCC 42149 / RIB 40), Thermal, DSC, reversible: yes, whole UniProt chain shown

B1: Guanyl-specific ribonuclease T1 wild type, P00651 (protein)
chain: MMYSKLLTLTTLLLPTALALPSLVERACDYTCGSNCYSSSDVSTAQAAGYQLHEDGETVGSNSYPHKYNNYEGFDFSVSSPYYEWPILSSGDVYSGGSPGADRVVFNENNQLAGVITHTGASGNNFVECT
Tm (pH 2, glycine 50 mM): 34.9 °C
heat capacity change of unfolding (pH 2, glycine 50 mM): 1.33 kcal/mol/K
unfolding enthalpy (calorimetric) (pH 2, glycine 50 mM): 62.1 kcal/mol
unfolding enthalpy (van 't Hoff) (pH 2, glycine 50 mM): 78.9 kcal/mol
Tm (pH 2.4, glycine 50 mM): 41.4 °C
heat capacity change of unfolding (pH 2.4, glycine 50 mM): 0.53 kcal/mol/K
unfolding enthalpy (calorimetric) (pH 2.4, glycine 50 mM): 67.5 kcal/mol
unfolding enthalpy (van 't Hoff) (pH 2.4, glycine 50 mM): 87.3 kcal/mol
Tm (pH 2.5, glycine 50 mM): 45.8 °C
heat capacity change of unfolding (pH 2.5, glycine 50 mM): 0.7 kcal/mol/K
unfolding enthalpy (calorimetric) (pH 2.5, glycine 50 mM): 82.5 kcal/mol
unfolding enthalpy (van 't Hoff) (pH 2.5, glycine 50 mM): 90.4 kcal/mol
Tm (pH 2.75, glycine 50 mM): 48.5 °C
heat capacity change of unfolding (pH 2.75, glycine 50 mM): 0.04 kcal/mol/K
unfolding enthalpy (calorimetric) (pH 2.75, glycine 50 mM): 83.8 kcal/mol
unfolding enthalpy (van 't Hoff) (pH 2.75, glycine 50 mM): 95.4 kcal/mol
Tm (pH 2.8, Citric acid 50 mM): 48 °C
heat capacity change of unfolding (pH 2.8, Citric acid 50 mM): 0.94 kcal/mol/K
unfolding enthalpy (calorimetric) (pH 2.8, Citric acid 50 mM): 76.3 kcal/mol
unfolding enthalpy (van 't Hoff) (pH 2.8, Citric acid 50 mM): 93.4 kcal/mol
Tm (pH 3, Citric acid 50 mM): 50.5 °C
heat capacity change of unfolding (pH 3, Citric acid 50 mM): 0.96 kcal/mol/K
unfolding enthalpy (calorimetric) (pH 3, Citric acid 50 mM): 86.9 kcal/mol
unfolding enthalpy (van 't Hoff) (pH 3, Citric acid 50 mM): 101 kcal/mol
Tm (pH 3.5, Citric acid 50 mM): 56.5 °C
heat capacity change of unfolding (pH 3.5, Citric acid 50 mM): 1.08 kcal/mol/K
unfolding enthalpy (calorimetric) (pH 3.5, Citric acid 50 mM): 94.8 kcal/mol
unfolding enthalpy (van 't Hoff) (pH 3.5, Citric acid 50 mM): 104 kcal/mol
Tm (pH 3.7, Citric acid 50 mM): 58.3 °C
heat capacity change of unfolding (pH 3.7, Citric acid 50 mM): 1.65 kcal/mol/K
unfolding enthalpy (calorimetric) (pH 3.7, Citric acid 50 mM): 98.1 kcal/mol
unfolding enthalpy (van 't Hoff) (pH 3.7, Citric acid 50 mM): 105 kcal/mol
Tm (pH 4.5, Citric acid 50 mM): 58.7 °C
heat capacity change of unfolding (pH 4.5, Citric acid 50 mM): 1.58 kcal/mol/K
unfolding enthalpy (calorimetric) (pH 4.5, Citric acid 50 mM): 96.6 kcal/mol
unfolding enthalpy (van 't Hoff) (pH 4.5, Citric acid 50 mM): 101 kcal/mol
Tm (pH 5, Citric acid 50 mM): 60.1 °C
heat capacity change of unfolding (pH 5, Citric acid 50 mM): 0.91 kcal/mol/K
unfolding enthalpy (calorimetric) (pH 5, Citric acid 50 mM): 101 kcal/mol
unfolding enthalpy (van 't Hoff) (pH 5, Citric acid 50 mM): 105 kcal/mol
Tm (pH 5.5, Citric acid 50 mM): 65.3 °C
heat capacity change of unfolding (pH 5.5, Citric acid 50 mM): 1.26 kcal/mol/K
unfolding enthalpy (calorimetric) (pH 5.5, Citric acid 50 mM): 109 kcal/mol
unfolding enthalpy (van 't Hoff) (pH 5.5, Citric acid 50 mM): 123 kcal/mol
Tm (pH 6, Citric acid 50 mM): 64.7 °C
heat capacity change of unfolding (pH 6, Citric acid 50 mM): 1.92 kcal/mol/K and 1.88 kcal/mol/K
unfolding enthalpy (calorimetric) (pH 6, Citric acid 50 mM): 114 kcal/mol
unfolding enthalpy (van 't Hoff) (pH 6, Citric acid 50 mM): 122 kcal/mol
Tm (pH 6.5, Citric acid 50 mM): 64.2 °C
heat capacity change of unfolding (pH 6.5, Citric acid 50 mM): 1.33 kcal/mol/K
unfolding enthalpy (calorimetric) (pH 6.5, Citric acid 50 mM): 115 kcal/mol
unfolding enthalpy (van 't Hoff) (pH 6.5, Citric acid 50 mM): 124 kcal/mol
